In US20240117056A1 (IBIO, published 2024):

B1: SD-382591-afuc (antibody, V domains shown)
VH: EVQLVQSGAEVKKPGASVKVSCKASGYTFTSYDINWVRQAPGQGLEWMGWIFPGDGTSKYAQKFQGRVTMTTDTSTSTAYMELSSLRSEDTAVYYCARRLGSHWGQGTTVTVSS
VL: DIQLTQSPSSLSASVGDRVTITCKASQSVDSDGDSYMNWYQQKPGKAPKLLIYGASNLESGVPSRFSGSGSGTDFTLTISSLQPEDFATYYCQQSHEYPFTFGQGTKLEIK
notes: afucosylated (FUT8 knock-out CHO)
B2: SD-577776-afuc (antibody, V domains shown)
VH: EVQLVQSGAEVKKPGASVKLSCKASGYTFTSYDINWVRQAPGQGLEWIGWIFPGDGTSKYAQKFQGRATLTTDKSTSTAYMELSSLRSEDTAVYYCARRLGSHWGQGTTLTVSS
VL: DIQLTQSPSSLSASVGDRATITCKASQSVDSDGDSYMNWYQQKPGKAPKLLIYGASNLESGIPSRFSGSGSGTDFTLTISSVQPEDFATYYCQQSHEYPFTFGQGTKLEIK
notes: as for B1
B3: SD-633416-afuc (antibody, V domains shown)
VH: EVQLVQSGAEVKKPGASVKVSCKASGYTFTSYDINWVRQAPGQGLEWMGWIFPGDGTSKYAQKFQGRVTMTRDTSTSTVYMELSSLRSEDTAVYYCARRLGSHWGQGTTVTVSS
VL: DIQMTQSPSSLSASVGDRVTITCKASQSVDSDGDSYMNWYQQKPGKAPKLLIYGASNLESGVPSRFSGSGSGTDFTLTISSLQPEDFATYYCQQSHEYPFTFGQGTKLEIK
notes: as for B1
B4: SD-638526-afuc (antibody, V domains shown)
VH: EVQLVQSGAEVKKPGASVKVSCKASGYTFTSYDINWVRQAPGQGLEWMGWIFPGDGTSKYAQKFQGRVTMTTDKSTSTAYMELSSLRSEDTAVYYCARRLGSHWGQGTTVTVSS
VL: DIQLTQSPSSLSASVGDRATITCKASQSVDSDGDSYMNWYQQKPGKAPKLLIYGASNLESGIPSRFSGSGSGTDFTLTISSVQPEDFATYYCQQSHEYPFTFGQGTKLEIK
notes: as for B1
B5: SD-710726-afuc (antibody, V domains shown)
VH: EVQLVQSGAEVKKPGASVKLSCKASGYTFTSYDINWVRQAPGQGLEWIGWIFPGDGTSKYAQKFQGRATLTTDKSTSTAYMELSSLRSEDTAVYYCARRLGSHWGQGTTLTVSS
VL: DIQLTQSPSSLSASVGDRVTITCKASQSVDSDGDSYMNWYQQKPGKAPKLLIYGASNLESGVPSRFSGSGSGTDFTLTISSLQPEDFATYYCQQSHEYPFTFGQGTKLEIK
notes: as for B1
B6: SD-741396-afuc (antibody, V domains shown)
VH: EVQLVQSGAEVKKPGASVKVSCKASGYTFTSYDINWVRQAPGQGLEWMGWIFPGDGTSKYAQKFQGRVTMTTDTSTSTAYMELSSLRSEDTAVYYCARRLGSHWGQGTTVTVSS
VL: DIQLTQSPSSLSASVGDRATITCKASQSVDSDGDSYMNWYQQKPGKAPKLLIYGASNLESGIPSRFSGSGSGTDFTLTISSVQPEDFATYYCQQSHEYPFTFGQGTKLEIK
notes: as for B1
B7: SD-757052-afuc (antibody, V domains shown)
VH: EVQLVQSGAEVKKPGASVKLSCKASGYTFTSYDINWVRQAPGQGLEWIGWIFPGDGTSKYAQKFQGRATLTTDTSTSTAYMELSSLRSEDTAVYYCARRLGSHWGQGTTLTVSS
VL: DIQLTQSPSSLSASVGDRATITCKASQSVDSDGDSYMNWYQQKPGKAPKLLIYGASNLESGIPSRFSGSGSGTDFTLTISSVQPEDFATYYCQQSHEYPFTFGQGTKLEIK
notes: as for B1
B8: SD-787077-afuc (antibody, V domains shown)
VH: EVQLVQSGAEVKKPGASVKVSCKASGYTFTSYDINWVRQAPGQGLEWMGWIFPGDGTSKYAQKFQGRVTMTTDKSTSTAYMELSSLRSEDTAVYYCARRLGSHWGQGTTVTVSS
VL: DIQLTQSPSSLSASVGDRVTITCKASQSVDSDGDSYMNWYQQKPGKAPKLLIYGASNLESGVPSRFSGSGSGTDFTLTISSLQPEDFATYYCQQSHEYPFTFGQGTKLEIK
notes: as for B1
B9: SD-844257-afuc (antibody, V domains shown)
VH: EVQLVQSGAEVKKPGASVKLSCKASGYTFTSYDINWVRQAPGQGLEWIGWIFPGDGTSKYAQKFQGRATLTTDTSTSTAYMELSSLRSEDTAVYYCARRLGSHWGQGTTLTVSS
VL: DIQLTQSPSSLSASVGDRVTITCKASQSVDSDGDSYMNWYQQKPGKAPKLLIYGASNLESGVPSRFSGSGSGTDFTLTISSLQPEDFATYYCQQSHEYPFTFGQGTKLEIK
notes: as for B1
B10: SD-233883-afuc (antibody, V domains shown)
VH: EVQLQQFGAELVKPGASVKLSCKASGYTFTSYDINWVRQRPEQGLEWIGWIFPGDGTSKYNEKFKGKATLSTDKSSSTAYMQLSRLTIEDSAVYFCARRLGSHWGQGSTLTVSS
VL: DIVLTQSPASLAVSLGQRATISCKASQSVDSDGDSYMNWYQQKPGQPPKLLIYGASNLESGIPARFSGSGSGTDFSLNIHPVEEEDAATYYCQQSHEYPFTFGGGTKLEIK
notes: afucosylated, made in FUT8 knock-out CHO cells; also called chimera
B11: SD-837152-afuc (antibody, V domains shown)
VH: QVQLVQSGAEVKKPGASVKVSCKASGYTFTSYDINWVRQAPGQRLEWMGWIFPGDGTSKYNEKFKGRVTITRDTSASTAYMELSSLRSEDTAVYYCARRLGSHWGQGTLVTVSS
VL: DIVLTQSPASLAVSPGQRATITCKASQSVDSDGDSYMNWYQQKPGQPPKLLIYGASNLESGVPARFSGSGSGTDFTLTINPVEANDTANYYCQQSHEYPFTFGQGTKLEIK
notes: as for B1

Tests used:
[1] = biological target: T1, human EGFR, purified recombinant protein (Acro Biosystems Cat #EGR-H5222) (human, UniProt P00533 25-645); experiment: ELISA, plate coated with human EGFR1, anti-human IgG-HRP, OD450
T1 construct: Bought protein; also called EGFR1; full length human EGFR1

[2] = biological target: T2, human EGFRvIII, purified recombinant protein (Acro Biosystems Cat #EGI-H52H4) (human, UniProt P00533 25-645); experiment: SPR (Carterra LSA), antibody captured on anti-human IgG, antigen injected, 1:1 Langmuir fit;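 further: EGFRvIII injected at five concentrations, fivefold serial dilution starting 500 nM, 5 min association then 15 min dissociation, double-referenced against interspot and buffer blank signals, global kinetic fit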
T2 construct: Bought protein; the deletion must be applied; also called truncated human EGFRvIII; huEGFRvIII

[3] = biological target: T3, wild type human EGFR1 on cells (F98 EGFR1; wild type U87MG; wild type FaDu) (human, UniProt P00533 25-1210); experiment: flow cytometry on F98 EGFR1 cells, anti-human IgG Fc Alexa Fluor 647, MFI
T3 construct: whole, on cells

[4] = biological target: T4, human EGFRvIII overexpressed on cells (F98npEGFRvIII, U87MG-EGFRvIII, FaDu-EGFRvIII) (human, UniProt P00533 25-1210); experiment: flow cytometry, F98npEGFRvIII cells, n=3
T4 construct: whole, on cells; the vIII deletion must be applied; also called F98 EGFRvIII

[5] = biological target: T4, human EGFRvIII overexpressed on cells …; experiment: cell-based or functional assay
[6] = biological target: T2, human EGFRvIII, purified recombinant …; experiment: ELISA, antigen coated at 1 ug/mL, anti-human IgG-HRP, n=3
[7] = biological target: T1, human EGFR, purified recombinant …; experiment: SPR (Carterra LSA), antibody captured on anti-human IgG, EGFR1 injected in a 5-fold series from 500 nM
[8] = biological target: T1, human EGFR, purified recombinant …; experiment: as above; remark: listed apart in the source
[9] = biological target: T4, human EGFRvIII overexpressed on cells …; experiment: cell-based or functional assay; remark: listed apart in the source
[10] = biological target: T4, human EGFRvIII overexpressed on cells …; experiment: flow cytometry, FaDu-EGFRvIII cells, n=3
[11] = biological target: T4, human EGFRvIII overexpressed on cells …; experiment: flow cytometry, U87MG-EGFRvIII cells, n=3
[12] = biological target: T4, human EGFRvIII overexpressed on cells …; experiment: cell-based or functional assay; remark: listed apart in the source
[13] = biological target: T3, wild type human EGFR1 on cells (F98 …); experiment: flow cytometry on wild type U87MG cells, anti-human IgG Fc Alexa Fluor 647, MFI

Binder	binding result [1]	Kd [2] [nM]	koff [2] [s⁻¹]	kon [2] [M⁻¹ s⁻¹]	binding result [3]	EC50 [4] [nM]	ADCC EC50 (nM), F98 EGFRvIII cells with PBMC [5] [nM]	EC50 [6] [nM]	binding result [7]	binding result [8]	ADCC EC50 (nM), U87MG-EGFRvIII cells with PBMC [9] [nM]	EC50 [10] [nM]	EC50 [11] [nM]	ADCC EC50 (nM), FaDu-EGFRvIII cells with PBMC [12] [nM]	binding result [13]
B1	no binding	131	0.0087	66000	no binding	4.13	0.106	0.103							
B2	no binding	100	0.0058	57000	no binding	3.46	0.0687	0.122							
B3	no binding	234	0.016	67000	no binding	13.8	0.289	0.121							
B4	no binding	122	0.0088	73000	no binding	3.21	0.111	0.102							
B5		86	0.0043	51000	no binding	4.02	0.0168	0.137	no binding						
B6		159	0.011	66000	no binding	5.12	0.123	0.091	no binding						
B7		105	0.006	57000	no binding	4.17	0.0562	0.112	no binding						
B8		108	0.0077	71000	no binding	3.91	0.0605	0.126		no binding					
B9		90	0.0048	53000	no binding	3.85	0.0738	0.111		no binding					
B10	no binding	40	0.003	74000	no binding	2.07	0.0082	0.144			0.0026	3.13	4.05	0.0039	
B11		60	0.0026	43000				0.155		no binding	0.0036	4.98	5.75	0.0058	no binding
